Results from US20130040853A1, “Context Specific Genetic Screen Platform to Aid in Gene Discovery and Target Validation” (Dana-Farber Cancer Institute Inc., priority 2010, published 2013).

Experiments:
cJUN phosphorylation = assay: JNK Kinase Assay (WT and mutant kinases immunoprecipitated from HMEL cells); format: biochemical, human; settings: as reported by level of cJUN phosphorylation; for MAP2K4/7 first incubated with inactive JNK2
[1] = test system: HMEL-BRAF^V600E melanocytes; assay: In vivo functional genetic screen and secondary validation: kinase-transduced HMEL cells implanted in nude mice; set-up: species or system human; settings: for Tumorigenicity in vivo: WT or mutant kinase expressed individually
From the text: A ‘cancer-kinase’ library was constructed containing sequence-verified ORFs in a lentiviral vector for 110 of the 120 kinases reported to sustain somatic driver mutations in diverse human cancers. This library was pooled and introduced into a human HMEL-BRAF^V600E melanocyte model system engineered with BRAF^V600E and TERT as well as p53DD and CDK4-R24C to inactivate the […] pathways, respectively. The HMEL-BRAF^V600E melanocyte profile, while representing the most common clinically-definable genetic profile in human melanoma, is insufficient to drive efficient melanoma formation following orthotopic transplantation in the skin (penetrance of 10% and latency of 26 weeks). In contrast, 40% of HMEL-BRAF^V600E melanocytes transduced with the cancer kinase pools developed tumors with an average latency of 13 weeks (range 10-18 weeks).
In vivo functional genetic screens: Lentivirus were prepared by co-transfecting 293T cells with individual vector backbones and standard virus packaging systems for subsequent collection of viral supernatants. Viral supernatants were then pooled randomly to generate 8 pools of high-titer lentiviral stocks. HMEL cells were transduced with either GFP control lentivirus or each representative lentiviral pool in the presence of 8 ug/ml polybrene (Company). Infected cells were expanded, mixed 1:1 with Matrigel (BD Bioscience) and then subcutaneously implanted in female nude animals (Taconic) at 1×10^6 cells per site on both flanks. Primary INK4A/ARF−/−, PTEN−/− murine astrocytes were transduced with either GFP control lentivirus or each representative lentiviral pool in the presence of 8 ug/ml polybrene (Company). Infected cells were expanded implanted into the brain parenchyma of female SCID mice (Charles River). Briefly, SCID mice were anesthetized and placed into a stereotactic apparatus equipped with a Z axis (Stoelting). A small hole was bored in the skull 0.5 mm anterior and 3.0 mm lateral to the bregma using a dental drill. Twenty thousand cells in Hank's Buffered Salt Solution were injected into the right caudate nucleus 2 mm below the surface of the brain using a 10-ul Hamilton syringe with an unbeveled 30 gauge needle. The scalp was closed using a 9-mm Autoclip Applier. Animals were followed daily for the development of subQ tumors or signs of neurological deficits. Animals were sacrifice, tumors were harvested, genomic DNA was prepared and kinases expressed in each tumor identified using PCR sequencing using plasmid specific CMV and V5 primers. Expression of each kinase was further validated by western blot analysis. Kinases expressed in each tumor were then enlisted into secondary validation screens in which stable HMEL or mouse astrocyte lines were generated expressing each kinase individually. Cells were again expanded and then implanted in female nude or SCID animals. All mice were housed and treated in accordance with protocols approved by the institutional care and use committees for animal research at the Dana-Farber Cancer Institute.

Molecule	Kinase Activity (cJUN phosphorylation)	Tumorigenicity in vivo [1]	tumor generation individually in secondary HMEL screens ([1]; kinase transduced individually)
MAP2K4 p.Q142L: MAP2K4 somatic driver mutant, observed in colorectal adenocarcinoma (protein, UniProt P45985 2-399, looked up, variant Q142L) Dual specificity …: AAPSPSGGGGSGGGSGSGTPGPVGSPAPGHPAVSSMQGKRKALKLNFANPPFKSTARFTLNPNPTGVQNPHIERLRTHSIESSGKLKISPEQHWDFTAEDLKDLGEIGRGAYGSVNKMVHKPSGQIMAVKRIRSTVDEKELKQLLMDLDVVMRSSDCPYIVQFYGALFREGDCWICMELMSTSFDKFYKYVYSVLDDVIPEEILGKITLATVKALNHLKENLKIIHRDIKPSNILLDRSGNIKLCDFGISGQLVDSIAKTRDAGCRPYMAPERIDPSASRQGYDVRSDVWSLGITLYELATGRFPYPKWNSVFDQLTQVVKGDPPQLSNSEEREFSPSFINFVNLCLTKDESKRPKYKELLKHPFILMYEERAVEVACYVCKILDQMPATPSSPMYVD	4X	YES	–
MAP2K4 p.R154W: MAP2K4 somatic driver mutant, observed in colorectal adenocarcinoma (protein, UniProt P45985 2-399, looked up, variant R154W) Dual specificity …: AAPSPSGGGGSGGGSGSGTPGPVGSPAPGHPAVSSMQGKRKALKLNFANPPFKSTARFTLNPNPTGVQNPHIERLRTHSIESSGKLKISPEQHWDFTAEDLKDLGEIGRGAYGSVNKMVHKPSGQIMAVKRIRSTVDEKEQKQLLMDLDVVMWSSDCPYIVQFYGALFREGDCWICMELMSTSFDKFYKYVYSVLDDVIPEEILGKITLATVKALNHLKENLKIIHRDIKPSNILLDRSGNIKLCDFGISGQLVDSIAKTRDAGCRPYMAPERIDPSASRQGYDVRSDVWSLGITLYELATGRFPYPKWNSVFDQLTQVVKGDPPQLSNSEEREFSPSFINFVNLCLTKDESKRPKYKELLKHPFILMYEERAVEVACYVCKILDQMPATPSSPMYVD	3X	YES	–
MAP2K7 WT: wild type MAP2K7 kinase ORF expressed in HMEL cells (protein, UniProt O14733 2-419, looked up) Dual specificity …: AASSLEQKLSRLEAKLKQENREARRRIDLNLDISPQRPRPTLQLPLANDGGSRSPSSESSPQHPTPPARPRHMLGLPSTLFTPRSMESIEIDQKLQEIMKQTGYLTIGGQRYQAEINDLENLGEMGSGTCGQVWKMRFRKTGHVIAVKQMRRSGNKEENKRILMDLDVVLKSHDCPYIVQCFGTFITNTDVFIAMELMGTCAEKLKKRMQGPIPERILGKMTVAIVKALYYLKEKHGVIHRDVKPSNILLDERGQIKLCDFGISGRLVDSKAKTRSAGCAAYMAPERIDPPDPTKPDYDIRADVWSLGISLVELATGQFPYKNCKTDFEVLTKVLQEEPPLLPGHMGFSGDFQSFVKDCLTKDHRKRPKYNKLLEHSFIKRYETLEVDVASWFKDVMAKTESPRTSGVLSQPHLPFFR	1X	–	did not generate tumors
JNK1 P.G171S: JNK1 somatic mutant, observed in renal clear cell carcinoma (protein, UniProt P45983 1-427, looked up, variant G171S) Mitogen-activated protein …: MSRSKRDNNFYSVEIGDSTFTVLKRYQNLKPIGSGAQGIVCAAYDAILERNVAIKKLSRPFQNQTHAKRAYRELVLMKCVNHKNIIGLLNVFTPQKSLEEFQDVYIVMELMDANLCQVIQMELDHERMSYLLYQMLCGIKHLHSAGIIHRDLKPSNIVVKSDCTLKILDFSLARTAGTSFMMTPYVVTRYYRAPEVILGMGYKENVDLWSVGCIMGEMVCHKILFPGRDYIDQWNKVIEQLGTPCPEFMKKLQPTVRTYVENRPKYAGYSFEKLFPDVLFPADSEHNKLKASQARDLLSKMLVIDASKRISVDEALQHPYINVWYDPSEAEAPPPKIPDKQLDEREHTIEEWKELIYKEVMDLEERTKNGVIRGQPSPLGAAVINGSQHPSSSSSVNDVSSMSTDPTLASDTDSSLEAAAGPLGCCR	1X	YES	–
